Laboratory results published in the DeepSol protein solubility set.

Experiment: soluble on expression in E. coli; label from the status in PepcDB or PDB records

Sequence | soluble on expression in E. coli
MVNLQEYQSKKLMSDNGVKVQRFFVADTANEALEAAKRLNAKEIVLKAQILAGGRGKGVFSSGLKGGVHLTKDPEVVGQLAKQMIGYNLATKQTPKEGVKVNKVMVAEALDISRETYLAILMDRSCNGPVLVGSPQGGVDIEEVAASNPELIFKEQIDIIEGIKDSQAQRMAENLGFLGPLQNQAADQIKKLYNLFLKIDATQVEVNPFGETPEGQVVCFDAKINFDDNAEFRQKDIFAMDDKSENEPIENEAAKYDLKYIGLDGNIACFVNGAGLAMATCDIIFLNGGKPANFLDLGGGVKESQVYQAFKLLTADPKVEAILVNIFGGIVNCAIIANGITKACRELELKVPLVVRLEGTNVHEAQNILTNSGLPITSAVDLEDAAKKAVASVTKK | soluble
MVPQTGRAARATRESGRQTRDALFTAATELFLEHGEGVPITQICAAAGAHPNQVTYYYGSKERLFVEVACAAVLRAGKRAEDDAATAETVGDYTEKLVGSLLGPGAPSVELFTSAMLMTGRRSELRDLITDTLRTLHSSGEVALIRTLMRTGWQLRAGIDVESKAFWSAIFGLVIQKTATGESFGYSLEEAVAVIFANLQIPETVRNTSID | soluble
MVQEIIVDSGDIEFLTTPKEYKQQLLSLIECARQRIFITALYLQDDEAGREILHALYQAKANFPTIEINIFVDFNRGQRGLIGEKASLGNRALYLKLAHEYPHTVNIYGVAVKRKEVFGVLHLKGMVFDEKLFYTGASINDIYLHQGERYRLDRYCTINSAALADSFCHYLSDTFIDSGLAPLLNQEWLPDAVEQKKNLIALKLQLKKSHYIVAQQQGLSQSKIVSNKALITPLVGFGRRKNQLNRATRHLVQKADDNMVLFTPYFNLPHSLAKDVIRALKRGVKTTVVVGDKTANDFFIGNDEDFSTIGIIPYVYEMLLKRFVKRYQNFIDQGLLNIHLWKDKDNSFHLKGLRVDDRYHLITGSNLNPRAWALDLENGLVVDDVNKQLLQKTDEELLGILVNTSKVSHFSDIDSVEDYPEKPQKLLKKIRVAQIDRVLKRFLLEHHHHHH | soluble
MVQHQMFDPGVADLLDTDILTSPSKRKRKLKIDDISTSDRSELEDYIVLENVYRMFGITFFPLVDPIDLKIKDASGEIFVDREMLGIRLEVFSERTSQFEKPHYVLLKKRIKSNSWFLFKHTIPSFIDVQGIFDDTNGGLVISHDDAYLFAKRVFLQLVEVQKRRQIFKDLEAKKIIHDLDLDLESSMVSFFVKDIKVELFVKQNEIVSCSILDDIHDFSQNNKSKWEIALLGSLDDLELKLNHSFATIFK | not soluble
MVREDRSTWKANYFTKLVELFEEYPKCLLVGVDNVGSKQMQEIRQAMRGHAEILMGKNTMIRKALRGHLGKNPSLEKLLPHIVENVGFVFTKEDLGEIRSKLLENRKGAPAKAGAIAPCDVKLPPQNTGMGPEKTSFFQALQIPTKIARGTIEILNDVHLIKEGDKVGASESALLNMLGVTPFSYGLVVRQVYDDGTLYTPEVLDMTTEELRKRFLSGVRNVASVSLAVNYPTLASVAHSLANGLQNMLGVAAVTDVSFKEAETIKAFIADPSKFAAAAPAAAAAPAAAAPAAKKEEPKEESDDDMGFGLFD | not soluble
MVRTAPDPAMVQRSHQKPSLVMTTHSMLIPMVDTLLELPARTLTDGTSTPKHQQLREILEELCRTQLKPGDMLPGERALEEQYGVSRITVRRAIGDLVATGQLRRSRGKGTFVAQAPMITRLQLASFSDEMAARKIEASSKILASSWSSPSAVVHEFFGTEQGTPHTHLVRVRLGGGKPFCINDAWYNSAIAPDLLENDVYKSVYSILEQNYGASITGAEQITTAVAATPETARILGVDVGEPLLKVERHAHAGENPIEWCSSLYRTDRFALRTFITK | not soluble
MVSEAEFMAALAKFAETSATASAAADRVIAVANVDASRIADEFNALLGWAMKIATLLLEEISKNPSLKAEMAESHQMLFGNLGTIVPALLKFGPYINQILGNFGLSLGKLFGIVLAF | not soluble
MVSEEEEEEDGDAEETQDSEDDEEDEMEEDDDDSDYPEEMEDDDDDASYCTESSFRSHSTYSSTPGRRKPRVHRPRSPILEEKDIPPLEFPKSSEDLMVPNEHIMNVIAIYEVLRNFGTVLRLSPFRFEDFCAALVSQEQCTLMAEMHVVLLKAVLREEDTSNTTFGPADLKDSVNSTLYFIDGMTWPEVLRVYCESDKEYHHVLPYQEAEDYPYGPVENKIKVLQFLVDQFLTTNIAREELMSEGVIQYDDHCRVCHKLGDLLCCETCSAVYHLECVKPPLEEVPEDEWQCEVCVAHKVPGVTDCVAEIQKNKPYIRHEPIGYDRSRRKYWFLNRRLIIEEDTENENEKKIWYYSTKVQLAELIDCLDKDYWEAELCKILEEMREEIHRHMDITEDLTNKARGSNKSFLAAANEEILESIRAKKGDIDNVKSPEETEKDKNETENDSKDAEKNREEFEDQSLEKDSDDKTPDDDPEQGKSEEPTEVGDKGNSVSANLGDNTTNATSEETSPSEGRSPVGCLSETPDSSNMAEKKVASELPQDVPVGDFKSEKSNGELSESPGAGKGASGSTRIITRLRNPDSKLSQLKSQQVAAAAHEANKLFKEGKEVLVVNSQGEISRLSTKKEVIMKGNINNYFKLGQEGKYRVYHNQYSTNSFALNKHQHREDHDKRRHLAHKFCLTPAGEFKWNGSVHGSKVLTISTLRLTITQLENNIPSSFLHPNWASHRANWIKAVQMCSKPREFALALAILECAVKPVVMLPIWRESLGHTRLHRMTSIEREEKEKVKKKKKK | soluble
MVSTESEIAVRIRGIYSTALTKLLMDRGFKIVQPSDVIAERFGIEKSYEDFDVDIYDKNHGVTIVGTKVEAVKKVFEEEFIDVFFRKLPYKLHGIYKGLVVKRDDRFVYVDIGNVIGTVLIEELPDAAEGDEVVVQVKKHNVLPHLSTLITIPGDYAVLIPKPIGVQRHVKISRKIKDPEERERLRILGLSVDLGEWGVLWRTAAAYKDWNTLRDELVRLSKIADKLKEAEKFSAPAEIIEGREIYEIEFGGGVKKKLDEIRNEVVPTIEGHHQFKSYDPEFTLAVDVAEGILAKLPSQRQKISKGFLEAIITSKGPKVGWIFTLNHVKPDGQIIKIGPGEVIEVSTDPLKVTIKRYLRPGKFYDGLEVPIESGDYAITEIEAGKWWFVHRYYDKDGNLKGEFYNINTPVEIYPDKARYVDLEVDIVRWPDGKKEIIDKEKLKEHYEEGIISEKLYKATLRIAQEVYDRLLEHHHHHH | not soluble
MVSVDPLATERWRSIRRLTDRDSAYKVPWFVPGPENFEALQNTKILVIGAGGLGCELLKNLALSGFRTIEVIDMDTIDVSNLNRQFLFRESDVGKSKAEVAAAFVQQRVVGCQVTAHNCRIEDKGQEFYRKFSIIICGLDSIPARRWINGMLCDLVLEMADGKPDENTIIPMIDGGTEGFKGNARVIYPKFTACIDCTLDLYPPQVNFPLCTIAHTPRLPEHCIEYIKVVVWPEEKPFEGVSLDADDPIHVEWVLERASLRAEKYNIRGVDRRLTSGVLKRIIPAVASTNAVIAASCALEALKLATNIAKPIDNYLNFTQIHGAYTSVVSMMKDDNCLTCSGGRLPFEVSPSSTLESLIIRLSERFHLKHPTLATSTRKLYCISSFMPQFEQESKENLHTSMKDLVSDGEEILVSDEALSRALTLRIQLI | not soluble
MVTAEIRLYITEGEVEDYRVFLERLEQSGLEWRPATPEDADAVIVLAGLWGTRRDEILGAVDLARKSSKPIITVRPYGLENVPPELEAVSSEVVGWNPHCIRDALEDALDVI | not soluble
MVTFKLNDEFMFGTATASTQIEGGDTGNTWYKWCQEGRIKDSSSCITACDHWNRVEEDTELLKNLGVQTHRMSLEWSRIEPSRGKFSDDAMKHYRDEIKLLVENNIKPLVTLHHFSEPIWFHEMGGWKKTGNADIFIEYVKYVVENLGDLVSDWVTFNEPNVYVDFGYVIGIFPPGERSLSEGLKVTAELINTHVKLYRLIHRIRRERKFAGRTMVGTAMHLRIFDGISSTGKMIAKVVDYLFNEMFMEGMTTGHMMFPLSKKGSSHKKGRYADFLGINYYTRNIVEFVFDPSLYFHELVCDKDLTKSDLGWDIYPEGIYKVCKRYYKKYKLPIYITENGISDKNDTKRPSFIASHLAYIAKAIKEGIPIERYYYWTLMDNFEWLEGESTDFGLYDCNFRTQERIPRKSVRLYEQICRRKELTAEMIEDFKKYSGITIETIR | soluble
MVTFNCEVCNDTVPKKNTEKHYYRCPNAYYTCIDCSKTFEDGVSYKNHTSCISEDEKYQKALYKGNKKQKQKQQQKQQQKQHQHQPVATPAKKVEKPVIKKAEKVEKTSNGIELHKGKSLYKILKTMKDKGAKKTFLKSLVVDSEGQIRYAKE | soluble
MVTILDRTSSDEKRIRHPEKAHRPDTEVMRKPEWIRVKAPTSKGYHETRELVRSHKLVTVCEEAGCPNIGECWEKKHATFMIMGEICTRACAFCNVATGKPNALDMDEPENVAKAVKQMGLSHVVITSVDRDDLADGGAEHFEKVIWAIRAASPTTTIEILTPDFLKKPGALERVVAAKPDVFNHNMETVPGNYLTVRPGARYFHSVRLLQRVKELDPTMFTKSGIMVGLGEERNEVLQLMDDLRSADVDFLTIGQYLQPTRKHHKVEAFVTPEEFKSYETVAYAKGFLMVSSSPLTRSSHHAGDDFERLRAAREKKLLAAAE | not soluble
MVTKTEEIQLNQLENQVENGGGGVWEYLCLVRKLKVRRSEIVLKHGLSILNDSGKRSALGPDEWTLYEQVAIAAMDCQSLGVAQNCIKVLKKKFPESKRVGKLEALLLEAKGMWEEAEKAYTSLLEDNPLDQVIHKRKVAMAKAQGKSSLAIEHLNKYLEVFMADHDAWRELAEIYVSLQMYKQAAFCYEELILTQPTLPLYHLAYADVLYTIGGLENLIAARKYYAATIDLTGGKSTRALLGICLCGSAIAQISKGRNKEDKDMAAPELQSLAATALEREYKQKAPAKLNLLTSALRNLKIA | not soluble
MVTLEELKAVFKPKLKPIIWREDSLDLLDQSALPFQTTYITVKTPEEVAKAIKLMQVRGAPAIGITAGYGMVLALISTKPNTLNEAIEELVKAKQIMDQARPTAVNLSWATSRMLNFAKKKIEEGEAKSVSELIQLMKEEANRIYEEELEAELKIGMYGLEKISDGDTILTQCNAGGLATGTGLGTALAPVKLAHYLGMKVSVIAPETRPWLQGSRLTVYELMAEGIQVTLITDTAVGLVIYKNMVNSVMVGADRILKDGHVFNKIGTFKEAVISHELGIPFYALAPSSSFDLKSKVDEIKIEERDPNEVRTIRGIPIVPENVKVYNPVFDVTPPKYITALITEKGVIYPPFEKNIPKIIGL | soluble
MVTNRVVFLTGAASGIGYEMGNTFAKEGAKVVITDRLEERAKEAAEQLQKEGFQAIGLKCDVTSEEEIEASISQTVNHFGSLDILINNAGMQHVSPIEDFPTEKFELLIKIMQIAPFIAIKHAFPIMKKQKYGRIINVASINGLVGFAGKAAYNSAKHGVIGLTKVAALEGATHGITVNALCPGYVDTPLVRNQLQDLATTRNVPLENVLEDVIYPLVPQKRLLQVQEIADYAMFLASEKAKGITGQAVVIDGGYTAQ | not soluble
MVTQNKKILIITGSFGNGHMQVTQSIVNQLNEMNLNHLSVIQHDLFMEAHPIMTSICKKWYINSFKYFRNTYKRFYYSRPNELDKCFYKYYGLNKLINLLIKEKPDLILLTFPTPVMSVLTEQFNINIPIATVMTDYRMHKNWITPYSQRYYVATKDTKDDFIEAGVPASYIKVTGIPIADKFELEHHHHHH | not soluble
